Substrate in series [1]: COc1cccc(OC)c1O
Nature of the series: steady-state kinetics, oxidation followed by absorbance. It counts as biochemical, Bacillus subtilis. An excerpt:
steady-state kinetics, oxidation followed by absorbance on BsDyP

Substrate in series [2]: CCn1c(=NN=c2sc3cc(S(=O)(=O)O)ccc3n2CC)sc2cc(S(=O)(=O)O)ccc21
The experiment in a line: steady-state kinetics, ABTS oxidation. The class given is biochemical, Bacillus subtilis. The settings on record: one kcat column shared with H2O2. An excerpt: steady-state kinetics, ABTS oxidation on BsDyP

The mark [3] stands for this setting: 0.2 mM H2O2, sodium phosphate buffer pH 3.8, 25 °C, apparent, rates per holoprotein.
Where [4] appears, read: 0.2 mM H2O2, pH 4.2, 25 °C, apparent.
[5] abbreviates: variant 1F9, 0.6 mM H2O2, sodium phosphate buffer pH 3.8, 25 °C.
Where [6] appears, read: variant 1F9, 0.6 mM H2O2, pH 4.2, 25 °C.
[7] abbreviates: variant 54D6, 0.6 mM H2O2, sodium phosphate buffer pH 3.8, 25 °C.
The mark [8] stands for this setting: variant 54D6, 0.6 mM H2O2, pH 4.2, 25 °C.
The mark [9] stands for this setting: variant 3G5, 0.6 mM H2O2, sodium phosphate buffer pH 3.8, 25 °C.
[10] abbreviates: variant 3G5, 0.6 mM H2O2, pH 4.2, 25 °C.
Where [11] appears, read: variant 5G5, 0.6 mM H2O2, sodium phosphate buffer pH 3.8, 25 °C.
Setting [12] is: variant 5G5, 0.6 mM H2O2, pH 4.2, 25 °C.

B1: BsDyP (Bacillus subtilis subsp. subtilis str. 168; A45M) (protein)
chain: MKPSKKDEKEEEQIVPFYGKHQAGITTAHQTYVYFAALDVTAKDKSDIITLFRNWTSLTQMLTSGKKMSAEQRNQYLPPQDTGESADLSPSNLTVTFGFGPGFFEKDGKDRFGLKSKKPKHLAALPAMPNDNLDEKQGGGDICIQVCADDEQVAFHALRNLLNQAVGTCEVRFVNKGFLSGGKNGETPRNLFGFKDGTGNQSTKDDTLMNSIVWIQSGEPDWMTGGTYMAFRKIKMFLEVWDRSSLKDQEDTFGRRKSSGAPFGQKKETDPVKLNQIPSNSHVSLAKSTGKQILRRAFSYTEGLDPKTGYMDAGLLFISFQKNPDNQFIPMLKALSAKDALNEYTQTIGSALYACPGGCKKGEYIAQRLLES
notes: Tat signal peptide (residues 1-45) deleted, A45M new start codon, plasmid pVB4 (pET-21a), no tag told; expressed in E. coli Tuner(DE3); called wild-type BsDyP; precursor 416 residues
One may read the Km as the substrate concentration at which the rate is half of its maximum. One may read the kcat as the maximal rate divided by the concentration of active sites. What is called kcat/Km is the turnover number divided by the Michaelis constant. Turning to B1, in series [1] (setting [3]), the Km turned out to be 0.06 ± 0.01 mM, the kcat turned out to be 0.42 ± 0.03 s⁻¹ and the catalytic efficiency (kcat/Km) turned out to be 7000 ± 1000 M⁻¹ s⁻¹. Besides, in series [2] (setting [4]), the Km turned out to be 0.42 ± 0.03 mM, the kcat amounted to 14.2 ± 1.0 s⁻¹ and the kcat/Km turned out to be 36000 ± 3000 M⁻¹ s⁻¹.

B2: BsDyP (Bacillus subtilis subsp. subtilis str. 168; A45M/S325P) (protein)
chain: MKPSKKDEKEEEQIVPFYGKHQAGITTAHQTYVYFAALDVTAKDKSDIITLFRNWTSLTQMLTSGKKMSAEQRNQYLPPQDTGESADLSPSNLTVTFGFGPGFFEKDGKDRFGLKSKKPKHLAALPAMPNDNLDEKQGGGDICIQVCADDEQVAFHALRNLLNQAVGTCEVRFVNKGFLSGGKNGETPRNLFGFKDGTGNQSTKDDTLMNSIVWIQSGEPDWMTGGTYMAFRKIKMFLEVWDRSSLKDQEDTFGRRKSSGAPFGQKKETDPVKLNQIPSNPHVSLAKSTGKQILRRAFSYTEGLDPKTGYMDAGLLFISFQKNPDNQFIPMLKALSAKDALNEYTQTIGSALYACPGGCKKGEYIAQRLLES
notes: as for B1
In the case of B2, in series [1] (setting [5]), the Km is 0.15 ± 0.01 mM, the kcat came out at 0.83 ± 0.04 s⁻¹ and the kcat/Km was found to be 5500 ± 400 M⁻¹ s⁻¹. Further, in series [2] (setting [6]), the Km was 0.89 ± 0.10 mM, the kcat was 50.4 ± 1.4 s⁻¹ and the kcat/Km came to 58000 ± 7000 M⁻¹ s⁻¹.

B3: BsDyP (Bacillus subtilis subsp. subtilis str. 168; A45M/K317E/S325P) (protein)
chain: MKPSKKDEKEEEQIVPFYGKHQAGITTAHQTYVYFAALDVTAKDKSDIITLFRNWTSLTQMLTSGKKMSAEQRNQYLPPQDTGESADLSPSNLTVTFGFGPGFFEKDGKDRFGLKSKKPKHLAALPAMPNDNLDEKQGGGDICIQVCADDEQVAFHALRNLLNQAVGTCEVRFVNKGFLSGGKNGETPRNLFGFKDGTGNQSTKDDTLMNSIVWIQSGEPDWMTGGTYMAFRKIKMFLEVWDRSSLKDQEDTFGRRKSSGAPFGQKKETDPVELNQIPSNPHVSLAKSTGKQILRRAFSYTEGLDPKTGYMDAGLLFISFQKNPDNQFIPMLKALSAKDALNEYTQTIGSALYACPGGCKKGEYIAQRLLES
notes: as for B1
In the case of B3, in series [1] (setting [7]), the Km was found to be 0.60 ± 0.01 mM, the catalytic constant (kcat) turned out to be 1 ± 0.1 s⁻¹ and the catalytic efficiency (kcat/Km) amounted to 1600 ± 500 M⁻¹ s⁻¹. In addition, in series [2] (setting [8]), the Michaelis-Menten constant (Km) worked out at 0.80 ± 0.14 mM, the turnover number (kcat) came to 47.7 ± 2.9 s⁻¹ and the kcat/Km worked out at 60000 ± 11000 M⁻¹ s⁻¹.

B4: BsDyP (Bacillus subtilis subsp. subtilis str. 168; A330V/A45M/L166Q/T296S/V284A) (protein)
chain: MKPSKKDEKEEEQIVPFYGKHQAGITTAHQTYVYFAALDVTAKDKSDIITLFRNWTSLTQMLTSGKKMSAEQRNQYLPPQDTGESADLSPSNLTVTFGFGPGFFEKDGKDRFGLKSKKPKHQAALPAMPNDNLDEKQGGGDICIQVCADDEQVAFHALRNLLNQAVGTCEVRFVNKGFLSGGKNGETPRNLFGFKDGTGNQSTKDDTLMNSIVWIQSGEPDWMTGGTYMAFRKIKMFLEAWDRSSLKDQEDSFGRRKSSGAPFGQKKETDPVKLNQIPSNSHVSLVKSTGKQILRRAFSYTEGLDPKTGYMDAGLLFISFQKNPDNQFIPMLKALSAKDALNEYTQTIGSALYACPGGCKKGEYIAQRLLES
notes: as for B1
Take B4: in series [1] (setting [9]), the Michaelis constant (Km) is given as 0.09 ± 0.01 mM, the turnover number (kcat) was determined as 0.8 ± 0.1 s⁻¹ and the catalytic efficiency (kcat/Km) worked out at 9000 ± 1000 M⁻¹ s⁻¹. Further, in series [2] (setting [10]), the Km worked out at 1.37 ± 0.25 mM, the kcat worked out at 28.1 ± 2.1 s⁻¹ and the kcat/Km came out at 25000 ± 5000 M⁻¹ s⁻¹.

B5: BsDyP (Bacillus subtilis subsp. subtilis str. 168; A330V/A45M/K317E/S325P) (protein)
chain: MKPSKKDEKEEEQIVPFYGKHQAGITTAHQTYVYFAALDVTAKDKSDIITLFRNWTSLTQMLTSGKKMSAEQRNQYLPPQDTGESADLSPSNLTVTFGFGPGFFEKDGKDRFGLKSKKPKHLAALPAMPNDNLDEKQGGGDICIQVCADDEQVAFHALRNLLNQAVGTCEVRFVNKGFLSGGKNGETPRNLFGFKDGTGNQSTKDDTLMNSIVWIQSGEPDWMTGGTYMAFRKIKMFLEVWDRSSLKDQEDTFGRRKSSGAPFGQKKETDPVELNQIPSNPHVSLVKSTGKQILRRAFSYTEGLDPKTGYMDAGLLFISFQKNPDNQFIPMLKALSAKDALNEYTQTIGSALYACPGGCKKGEYIAQRLLES
notes: as for B1
With B5, in series [1] (setting [11]), the Michaelis constant (Km) was 0.7 ± 0.1 mM, the kcat was 2.8 ± 0.1 s⁻¹ and the kcat/Km stood at 3800 ± 200 M⁻¹ s⁻¹. For the same protein, in series [2] (setting [12]), the Km is on record as 1.29 ± 0.19 mM, the kcat was found to be 56.1 ± 1.9 s⁻¹ and the catalytic efficiency (kcat/Km) amounted to 42000 ± 6000 M⁻¹ s⁻¹.

For the origin of these results see PMC8509576, “Loops around the Heme Pocket Have a Critical Role in the Function and Stability of BsDyP from Bacillus subtilis” (International Journal of Molecular Sciences, 2021).
